Experimental findings from the supplement of paper PMC9732359 are described below.

± gives the uncertainty stated by the source.

This series in a line: protein stability index of a GFP-peptide fusion (yeast GPS) (PSI 1-4); higher = more stable; sorted into four equal gates, so the index is relative within each strain. Summed up:
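Plasmids in a pooled yeast library fused tiled 17-residue yeast protein peptides downstream of GFP and also expressed Cherry. Mid-log cultures grown without leucine were sorted into four equal gates by GFP/Cherry fluorescence ratio. Each gate's plasmids were PCR-amplified and Illumina-sequenced, and reads were matched to strains by barcodes. The protein stability index is derived by multiplying each gate's read frequency by its gate number and summing the results.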

KYISAELYAQLRENGLV [SNU114]: the protein stability index came to 2.91 ± 0.13 (doa10∆), 2.99 ± 0.12 (pdr5∆), 3.21 ± 0.092 (san1∆) and 3.07 ± 0.076 (ubr1∆).

Turning to FTMMTSEPLTLKVLSEH [PCI8], the protein stability index by setting is: (doa10∆) 1.73 ± 0.056; (pdr5∆) 1.96 ± 0.049; (san1∆) 1.94 ± 0.095; (ubr1∆) 1.54 ± 0.045.

As to IEIMGILMGFTLKDNIV [RRI1], the protein stability index (doa10∆) worked out at 2.46 ± 0.097, the protein stability index (pdr5∆) was found to be 2.15 ± 0.076, the protein stability index (san1∆) worked out at 2.81 ± 0.12 and the protein stability index (ubr1∆) turned out to be 2.55 ± 0.083.

For the sequence FLKVKGLVKQHLDSFNY [RET1], the protein stability index (doa10∆) came out at 3.09 ± 0.17, the protein stability index (pdr5∆) came to 3.18 ± 0.1, the protein stability index (san1∆) amounted to 2.78 ± 0.29 and the protein stability index (ubr1∆) was 2.94 ± 0.19.

KRVKSYMDKAKQYDNRI [LRP1]: the protein stability index reads like this: (doa10∆) 2.87 ± 0.047; (pdr5∆) 2.89 ± 0.042; (san1∆) 2.92 ± 0.04; (ubr1∆) 2.83 ± 0.042.

As for CSNESFASIPVSNSISR [SNU114], the protein stability index reads like this: (doa10∆) 2.55 ± 0.069; (pdr5∆) 2.67 ± 0.057; (san1∆) 2.46 ± 0.078; (ubr1∆) 2.7 ± 0.062.

With PQKSSSKGFVFNSVQKK [YAR002W/NUP60], the protein stability index by setting is: (doa10∆) 1.65 ± 0.088; (pdr5∆) 1.4 ± 0.1; (san1∆) 1.83 ± 0.14; (ubr1∆) 1.18 ± 0.13.

As for HFSKDDYSPESKGFVEN [RPO21], the protein stability index by setting is: (doa10∆) 2.88 ± 0.17; (pdr5∆) 2.28 ± 0.17.

Take EALQYDPQPFLKHVLQL [SNU114]: the protein stability index is 2.17 ± 0.04 (doa10∆), 2.53 ± 0.047 (pdr5∆), 2.35 ± 0.075 (san1∆) and 2.65 ± 0.038 (ubr1∆).

Regarding AYAQVEIQPRANIQLDF [FAS2], the protein stability index amounted to 3.17 ± 0.061 (doa10∆), 3.06 ± 0.066 (pdr5∆), 3.08 ± 0.057 (san1∆) and 3.16 ± 0.049 (ubr1∆).

Turning to QLNLNNLTPANILNMSM [PGD1], the protein stability index was 3.04 ± 0.1 (doa10∆), 3.19 ± 0.07 (pdr5∆), 2.75 ± 0.067 (san1∆) and 3.02 ± 0.045 (ubr1∆).

NYNDLIVNYEDLATTQA [BRN1]: the protein stability index turned out to be 2.98 ± 0.07 (doa10∆), 3.1 ± 0.087 (pdr5∆), 3.34 ± 0.047 (san1∆) and 3.27 ± 0.061 (ubr1∆).

VSNNEANTPSIPTNPVD [SWI3]: the protein stability index is 3.14 ± 0.074 (doa10∆), 3.2 ± 0.09 (pdr5∆), 2.97 ± 0.082 (san1∆) and 3.08 ± 0.065 (ubr1∆).

Regarding QWFEAHYGQTLGKKKNV [RPS8A], the protein stability index is 2.556 ± 0.025 (doa10∆), 2.876 ± 0.025 (pdr5∆), 2.44 ± 0.027 (san1∆) and 2.647 ± 0.022 (ubr1∆).

Turning to VEFNRKVVIPNLLCYYN [RPN3], the protein stability index (pdr5∆) came out at 1.67 ± 0.22.

Take TRIFQALPRKLRRRTAS [POP1]: the protein stability index worked out at 2.33 ± 0.07 (doa10∆), 3.23 ± 0.11 (pdr5∆), 2.68 ± 0.14 (san1∆) and 2.73 ± 0.074 (ubr1∆).

Regarding KKNPNWLEEYHPKLIKN [FAS1], the protein stability index reads like this: (doa10∆) 2.05 ± 0.087; (pdr5∆) 1.94 ± 0.061; (san1∆) 1.97 ± 0.084; (ubr1∆) 2.14 ± 0.046.

VGLVMFSQFWYWFPLAH [RPN2]: the protein stability index is, setting by setting: (doa10∆) 1.52 ± 0.078; (pdr5∆) 1.39 ± 0.072; (san1∆) 1.66 ± 0.17; (ubr1∆) 1.41 ± 0.051.

Take YQKKQYKDSLALINDLL [RPN6]: the protein stability index is 2.4 ± 0.26 (doa10∆), 2.68 ± 0.19 (pdr5∆), 1.82 ± 0.21 (san1∆) and 2.86 ± 0.13 (ubr1∆).

On to HVIQIPLNKPLLTEELA [TAF14], for which the protein stability index is 2.2 ± 0.053 (doa10∆), 2.39 ± 0.037 (pdr5∆), 2.49 ± 0.053 (san1∆) and 2.32 ± 0.039 (ubr1∆).

With VLLDARDIEKITSLYAL [CDC53], the protein stability index is 1.69 ± 0.038 (doa10∆), 1.99 ± 0.034 (pdr5∆), 1.72 ± 0.06 (san1∆) and 2.02 ± 0.029 (ubr1∆).

On to SLEDPQVRKKQIETINF [YDL116W/NUP84], for which the protein stability index came to 1.72 ± 0.12 (doa10∆), 1.82 ± 0.088 (pdr5∆), 2.19 ± 0.11 (san1∆) and 2.23 ± 0.19 (ubr1∆).

As for SIIQSKQDCVDWFTYSY [BRR2], the protein stability index was 1.58 ± 0.037 (doa10∆), 1.78 ± 0.037 (pdr5∆), 1.69 ± 0.085 (san1∆) and 1.97 ± 0.033 (ubr1∆).

Sequence DADTEDPHSASLINSHL [RPC82] showed a protein stability index (doa10∆) of 2.9 ± 0.084, a protein stability index (pdr5∆) of 3.27 ± 0.085, a protein stability index (san1∆) of 2.97 ± 0.078 and a protein stability index (ubr1∆) of 3 ± 0.13.

As for LGQLYVTMGAKDKLREF [RPN6], the protein stability index came to 3.33 ± 0.12 (doa10∆), 3.13 ± 0.11 (pdr5∆), 3.08 ± 0.078 (san1∆) and 3.12 ± 0.069 (ubr1∆).

For SDFISKLEYPHTDVSSS [RPN3], the protein stability index was found to be 2.56 ± 0.047 (doa10∆), 2.88 ± 0.054 (pdr5∆), 2.82 ± 0.047 (san1∆) and 2.5 ± 0.045 (ubr1∆).

As to DPLLSLYNFLHKYVLTL [RGR1], the protein stability index is, setting by setting: (doa10∆) 2.5 ± 0.043; (pdr5∆) 2.12 ± 0.07; (san1∆) 2.49 ± 0.05; (ubr1∆) 2.12 ± 0.046.

KTCAEVIGGNSLFHIVV [SMC3]: the protein stability index by setting is: (doa10∆) 3.05 ± 0.11; (pdr5∆) 3.1 ± 0.1; (san1∆) 2.96 ± 0.071; (ubr1∆) 3.01 ± 0.089.

In the case of SVAEKEEIRSQIDHFKS [SWI3], the protein stability index (doa10∆) stood at 1.73 ± 0.046, the protein stability index (pdr5∆) worked out at 2.42 ± 0.084, the protein stability index (san1∆) worked out at 2.8 ± 0.07 and the protein stability index (ubr1∆) came out at 2.65 ± 0.055.

As for ESNKRYRFFKKISEDPV [SNF12], the protein stability index came out at 3.16 ± 0.16 (doa10∆), 2.97 ± 0.16 (pdr5∆), 2.99 ± 0.18 (san1∆) and 2.69 ± 0.061 (ubr1∆).

Consider HLIPNEIKGASETPLQK [RPN4], for which the protein stability index turned out to be 1.57 ± 0.12 (pdr5∆), 1.55 ± 0.13 (san1∆) and 1.91 ± 0.11 (ubr1∆).

Turning to HGQKGVCGIIVKQEDMP [RET1], the protein stability index runs as follows: (doa10∆) 2.93 ± 0.24; (pdr5∆) 1.35 ± 0.16.

Turning to KIMQEATQSGGVRPFGV [PRE8], the protein stability index runs as follows: (pdr5∆) 2.45 ± 0.29; (ubr1∆) 2.95 ± 0.1.

Turning to QQIPLLCYMAPMTVKLV [POP3], the protein stability index runs as follows: (doa10∆) 1.63 ± 0.052; (pdr5∆) 1.57 ± 0.047; (san1∆) 1.78 ± 0.072; (ubr1∆) 1.53 ± 0.057.

Take QNPLNKSQNTALPSTHK [SIR4]: the protein stability index by setting is: (doa10∆) 2.62 ± 0.048; (pdr5∆) 2.88 ± 0.049; (san1∆) 2.33 ± 0.058; (ubr1∆) 2.76 ± 0.037.

RAKSSSHLFNEYSYVDS [RPN4]: the protein stability index turned out to be 2.62 ± 0.16 (doa10∆), 3.23 ± 0.24 (pdr5∆), 3.25 ± 0.19 (san1∆) and 2.63 ± 0.12 (ubr1∆).

Regarding FNQFVDYTLQDIICEDS [RPB2], the protein stability index is, setting by setting: (doa10∆) 2.72 ± 0.1; (pdr5∆) 2.86 ± 0.083; (san1∆) 2.78 ± 0.053; (ubr1∆) 2.36 ± 0.079.

EEYDDDDDNSNVDYYNV [SNF2]: the protein stability index came out at 2.89 ± 0.067 (doa10∆), 2.93 ± 0.063 (pdr5∆), 2.93 ± 0.042 (san1∆) and 3.06 ± 0.067 (ubr1∆).

In turn, YLINGKRFKRKDNAKIS [SRP68] had a protein stability index (doa10∆) of 1.36 ± 0.075, a protein stability index (pdr5∆) of 1.58 ± 0.096, a protein stability index (san1∆) of 1.75 ± 0.12 and a protein stability index (ubr1∆) of 1.63 ± 0.049.
